Test results reported in PMC9482650, “Quantitative fragmentomics allow affinity mapping of interactomes” (Nature Communications, 2022).

T1: APBA1_1, Q02410
T1 sequence (Q02410 651-752, limits assumed, looked up): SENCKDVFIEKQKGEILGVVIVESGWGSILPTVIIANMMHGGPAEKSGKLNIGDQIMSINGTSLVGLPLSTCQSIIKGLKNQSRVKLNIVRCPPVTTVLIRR

T2: APBA1_2, Q02410
T2 sequence (Q02410 742-832, limits assumed, looked up): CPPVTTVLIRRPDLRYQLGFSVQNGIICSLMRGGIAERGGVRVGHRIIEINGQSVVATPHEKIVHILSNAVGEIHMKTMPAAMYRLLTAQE

T3: DLG3_1, Q92796
T3 sequence (Q92796 125-227, limits assumed, looked up): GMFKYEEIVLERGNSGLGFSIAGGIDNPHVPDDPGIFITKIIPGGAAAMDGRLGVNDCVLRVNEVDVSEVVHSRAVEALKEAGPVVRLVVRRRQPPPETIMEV

T4: DLG3_3, Q92796
T4 sequence (Q92796 374-475, limits assumed, looked up): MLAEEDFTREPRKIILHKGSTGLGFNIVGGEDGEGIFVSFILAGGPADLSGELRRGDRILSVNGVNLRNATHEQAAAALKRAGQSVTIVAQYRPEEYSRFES

T5: GRIP1_3, Q9Y3R0
T5 sequence (Q9Y3R0 247-346, limits assumed, looked up): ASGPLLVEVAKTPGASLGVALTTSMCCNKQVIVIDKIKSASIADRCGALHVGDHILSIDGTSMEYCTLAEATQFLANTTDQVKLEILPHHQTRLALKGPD

T6: GRIP1_5, Q9Y3R0
T6 sequence (Q9Y3R0 568-668, limits assumed, looked up): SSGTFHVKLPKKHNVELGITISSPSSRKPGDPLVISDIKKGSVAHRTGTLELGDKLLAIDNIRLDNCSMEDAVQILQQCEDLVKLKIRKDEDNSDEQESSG

T7: LNX2_2, Q8N448
T7 sequence (Q8N448 334-432, limits assumed, looked up): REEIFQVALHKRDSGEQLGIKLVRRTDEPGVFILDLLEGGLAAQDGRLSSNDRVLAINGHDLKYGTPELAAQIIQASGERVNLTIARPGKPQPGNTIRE

T8: MPP2, Q14168
T8 sequence (Q14168 180-250, limits assumed, looked up): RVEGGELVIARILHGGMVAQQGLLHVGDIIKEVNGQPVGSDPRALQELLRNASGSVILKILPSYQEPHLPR

T9: NHERF3_1, Q5T2W1
T9 sequence (Q5T2W1 4-100, limits assumed, looked up): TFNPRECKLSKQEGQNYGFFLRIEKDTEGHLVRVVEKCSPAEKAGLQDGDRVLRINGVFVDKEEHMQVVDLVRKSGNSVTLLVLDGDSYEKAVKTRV

T10: RHPN1, Q8TCX5
T10 sequence (Q8TCX5 508-602, limits assumed, looked up): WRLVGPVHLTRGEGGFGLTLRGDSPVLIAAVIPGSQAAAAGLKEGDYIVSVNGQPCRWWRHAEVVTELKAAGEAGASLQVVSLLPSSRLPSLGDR

T11: SYNJ2BP, P57105
T11 sequence (P57105 8-110, limits assumed, looked up): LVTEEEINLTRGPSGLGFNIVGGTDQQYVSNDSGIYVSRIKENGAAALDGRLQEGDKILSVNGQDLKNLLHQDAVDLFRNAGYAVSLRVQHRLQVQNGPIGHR

T12: TIAM2, Q8IVF5
T12 sequence (Q8IVF5 885-986, limits assumed, looked up): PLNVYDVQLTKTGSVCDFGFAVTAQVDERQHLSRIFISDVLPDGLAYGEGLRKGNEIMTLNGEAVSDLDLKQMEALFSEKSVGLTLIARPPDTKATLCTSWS

B1: MYOZ1, Q9NP98 (peptide)
chain: IPLDGETEEL
B2: SLC22A12, Q96S37 (peptide)
chain: GNSVLKSTQF
B3: TMEM151B, Q8IW70 (peptide)
chain: RHGSCVETSL
B4: JAG1, P78504 (peptide)
chain: QSLNRMEYIV

The binders below were run against AHNAK1, Q09666 (assay: holdup assay). Conditions: plain residues with an end cap or a label only (N-terminal biotin on a linker: ado-ado).
Set-up: key: below the threshold = too weak to quantify, mostly under pKd 3.1 to 4

AHNAK1, Q09666, sequence (Q09666 4-100): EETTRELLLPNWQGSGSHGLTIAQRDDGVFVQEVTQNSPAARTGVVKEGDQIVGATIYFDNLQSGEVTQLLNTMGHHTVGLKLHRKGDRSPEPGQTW

Binder | pKd
B1 | below the threshold
B2 | below the threshold
B3 | below the threshold
B4 | below the threshold

Each binder was assayed against T1, APBA1_1, Q02410 (assay: holdup assay). Conditions: plain residues with an end cap or a label only (N-terminal biotin on a linker: ado-ado).
Set-up: key: below the threshold = too weak to quantify, mostly under pKd 3.1 to 4

Binder | pKd
B1 | below the threshold
B2 | below the threshold
B3 | below the threshold
B4 | below the threshold

The binders below were run against T2, APBA1_2, Q02410 (assay: holdup assay). Conditions: plain residues with an end cap or a label only (N-terminal biotin on a linker: ado-ado).
Set-up: key: below the threshold = too weak to quantify, mostly under pKd 3.1 to 4

Binder | pKd
B1 | below the threshold
B2 | below the threshold
B3 | 3.97
B4 | below the threshold

The binders below were run against T3, DLG3_1, Q92796 (assay: holdup assay). Conditions: plain residues with an end cap or a label only (N-terminal biotin on a linker: ado-ado).
Set-up: key: below the threshold = too weak to quantify, mostly under pKd 3.1 to 4

Binder | pKd
B1 | below the threshold
B2 | below the threshold
B3 | 3.53
B4 | below the threshold

What follows are binders tested against T4, DLG3_3, Q92796 (assay: holdup assay). Conditions: plain residues with an end cap or a label only (N-terminal biotin on a linker: ado-ado).
Set-up: key: below the threshold = too weak to quantify, mostly under pKd 3.1 to 4

Binder | pKd
B1 | below the threshold
B2 | below the threshold
B3 | 4.2
B4 | below the threshold

The binders below were run against DLG4_1, P78352 (assay: holdup assay). Conditions: plain residues with an end cap or a label only (N-terminal biotin on a linker: ado-ado).
Set-up: key: below the threshold = too weak to quantify, mostly under pKd 3.1 to 4

DLG4_1, P78352, sequence (P78352 62-152): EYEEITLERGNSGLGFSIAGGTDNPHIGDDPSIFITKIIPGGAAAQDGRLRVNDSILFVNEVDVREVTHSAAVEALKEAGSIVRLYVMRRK

Binder | pKd
B1 | below the threshold
B2 | below the threshold
B3 | 3.98
B4 | below the threshold

What follows are binders tested against FRMPD2_3, Q68DX3 (assay: holdup assay). Conditions: plain residues with an end cap or a label only (N-terminal biotin on a linker: ado-ado).
Set-up: key: below the threshold = too weak to quantify, mostly under pKd 3.1 to 4

FRMPD2_3, Q68DX3, sequence (Q68DX3 1073-1166): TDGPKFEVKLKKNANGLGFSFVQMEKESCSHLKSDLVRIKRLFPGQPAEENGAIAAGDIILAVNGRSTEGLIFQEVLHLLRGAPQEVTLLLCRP

Binder | pKd
B1 | below the threshold
B2 | below the threshold
B3 | below the threshold
B4 | 4.36

The binders below were run against GRID2IP_2, A4D2P6 (assay: holdup assay). Conditions: plain residues with an end cap or a label only (N-terminal biotin on a linker: ado-ado).
Set-up: key: below the threshold = too weak to quantify, mostly under pKd 3.1 to 4

GRID2IP_2, A4D2P6, sequence (A4D2P6 272-370): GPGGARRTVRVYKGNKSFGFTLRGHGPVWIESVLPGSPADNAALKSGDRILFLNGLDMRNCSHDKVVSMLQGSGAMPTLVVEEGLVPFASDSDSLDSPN

Binder | pKd
B1 | below the threshold
B2 | below the threshold
B3 | 4.36
B4 | below the threshold

Each binder was assayed against T5, GRIP1_3, Q9Y3R0 (assay: holdup assay). Conditions: plain residues with an end cap or a label only (N-terminal biotin on a linker: ado-ado).
Set-up: key: below the threshold = too weak to quantify, mostly under pKd 3.1 to 4

Binder | pKd
B1 | below the threshold
B2 | below the threshold
B3 | below the threshold
B4 | below the threshold

Each binder was assayed against T6, GRIP1_5, Q9Y3R0 (assay: holdup assay). Conditions: plain residues with an end cap or a label only (N-terminal biotin on a linker: ado-ado).
Set-up: key: below the threshold = too weak to quantify, mostly under pKd 3.1 to 4

Binder | pKd
B1 | below the threshold
B2 | below the threshold
B3 | below the threshold
B4 | below the threshold

These binders were tested against GRIP2_4, Q9C0E4 (assay: holdup assay). Conditions: plain residues with an end cap or a label only (N-terminal biotin on a linker: ado-ado).
Set-up: key: below the threshold = too weak to quantify, mostly under pKd 3.1 to 4

GRIP2_4, Q9C0E4, sequence (Q9C0E4 446-548): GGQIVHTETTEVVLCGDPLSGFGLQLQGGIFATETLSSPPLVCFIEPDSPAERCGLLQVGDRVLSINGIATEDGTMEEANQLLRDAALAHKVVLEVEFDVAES

Binder | pKd
B1 | below the threshold
B2 | below the threshold
B3 | below the threshold
B4 | below the threshold

These binders were tested against GRIP2_5, Q9C0E4 (assay: holdup assay). Conditions: plain residues with an end cap or a label only (N-terminal biotin on a linker: ado-ado).
Set-up: key: below the threshold = too weak to quantify, mostly under pKd 3.1 to 4

GRIP2_5, Q9C0E4, sequence (Q9C0E4 544-642): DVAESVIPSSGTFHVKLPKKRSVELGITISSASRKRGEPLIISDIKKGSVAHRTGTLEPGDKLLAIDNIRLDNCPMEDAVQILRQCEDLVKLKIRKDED

Binder | pKd
B1 | below the threshold
B2 | below the threshold
B3 | below the threshold
B4 | below the threshold

The binders below were run against HTRA1, Q92743 (assay: holdup assay). Conditions: plain residues with an end cap or a label only (N-terminal biotin on a linker: ado-ado).
Set-up: key: below the threshold = too weak to quantify, mostly under pKd 3.1 to 4

HTRA1, Q92743, sequence (Q92743 360-477): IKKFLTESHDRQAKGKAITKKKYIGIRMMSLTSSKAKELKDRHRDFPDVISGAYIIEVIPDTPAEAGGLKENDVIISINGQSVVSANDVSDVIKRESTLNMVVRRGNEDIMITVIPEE

Binder | pKd
B1 | 3.99
B2 | below the threshold
B3 | 3.86
B4 | 5.37

What follows are binders tested against IL16_3, Q14005 (assay: holdup assay). Conditions: plain residues with an end cap or a label only (N-terminal biotin on a linker: ado-ado).
Set-up: key: below the threshold = too weak to quantify, mostly under pKd 3.1 to 4

IL16_3, Q14005, sequence (Q14005 1107-1207): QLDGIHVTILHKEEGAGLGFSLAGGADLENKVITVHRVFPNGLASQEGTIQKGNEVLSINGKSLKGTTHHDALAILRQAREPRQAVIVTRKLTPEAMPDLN

Binder | pKd
B1 | below the threshold
B2 | below the threshold
B3 | below the threshold
B4 | below the threshold

These binders were tested against Inadl_8, Q8NI35 (assay: holdup assay). Conditions: plain residues with an end cap or a label only (N-terminal biotin on a linker: ado-ado).
Set-up: key: below the threshold = too weak to quantify, mostly under pKd 3.1 to 4

Inadl_8, Q8NI35, sequence (Q8NI35 1425-1530): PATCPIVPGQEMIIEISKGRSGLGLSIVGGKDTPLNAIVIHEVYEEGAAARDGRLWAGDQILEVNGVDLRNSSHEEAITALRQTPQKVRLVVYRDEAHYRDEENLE

Binder | pKd
B1 | below the threshold
B2 | below the threshold
B3 | below the threshold
B4 | below the threshold

These binders were tested against T7, LNX2_2, Q8N448 (assay: holdup assay). Conditions: plain residues with an end cap or a label only (N-terminal biotin on a linker: ado-ado).
Set-up: key: below the threshold = too weak to quantify, mostly under pKd 3.1 to 4

Binder | pKd
B1 | below the threshold
B2 | below the threshold
B3 | below the threshold
B4 | 5.4

What follows are binders tested against MAGI1_1, Q96QZ7 (assay: holdup assay). Conditions: plain residues with an end cap or a label only (N-terminal biotin on a linker: ado-ado).
Set-up: key: below the threshold = too weak to quantify, mostly under pKd 3.1 to 4

MAGI1_1, Q96QZ7, sequence (Q96QZ7 1-106): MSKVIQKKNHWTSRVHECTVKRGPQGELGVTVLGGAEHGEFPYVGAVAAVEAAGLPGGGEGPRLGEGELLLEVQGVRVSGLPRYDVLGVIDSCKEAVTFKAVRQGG

Binder | pKd
B1 | below the threshold
B2 | below the threshold
B3 | below the threshold
B4 | below the threshold

The binders below were run against T8, MPP2, Q14168 (assay: holdup assay). Conditions: plain residues with an end cap or a label only (N-terminal biotin on a linker: ado-ado).
Set-up: key: below the threshold = too weak to quantify, mostly under pKd 3.1 to 4

Binder | pKd
B1 | below the threshold
B2 | below the threshold
B3 | below the threshold
B4 | below the threshold

What follows are binders tested against T9, NHERF3_1, Q5T2W1 (assay: holdup assay). Conditions: plain residues with an end cap or a label only (N-terminal biotin on a linker: ado-ado).
Set-up: key: below the threshold = too weak to quantify, mostly under pKd 3.1 to 4

Binder | pKd
B1 | 3.48
B2 | 6.17
B3 | 5.38
B4 | below the threshold

The binders below were run against NOS1, P29475 (assay: holdup assay). Conditions: plain residues with an end cap or a label only (N-terminal biotin on a linker: ado-ado).
Set-up: key: below the threshold = too weak to quantify, mostly under pKd 3.1 to 4

NOS1, P29475, sequence (P29475 9-101): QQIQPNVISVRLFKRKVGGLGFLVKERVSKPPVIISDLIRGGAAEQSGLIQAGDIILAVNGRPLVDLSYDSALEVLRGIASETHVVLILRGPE

Binder | pKd
B1 | below the threshold
B2 | 3.72
B3 | 3.84
B4 | 3.54

These binders were tested against PDLIM1, O00151 (assay: holdup assay). Conditions: plain residues with an end cap or a label only (N-terminal biotin on a linker: ado-ado).
Set-up: key: below the threshold = too weak to quantify, mostly under pKd 3.1 to 4

PDLIM1, O00151, sequence (O00151 1-87): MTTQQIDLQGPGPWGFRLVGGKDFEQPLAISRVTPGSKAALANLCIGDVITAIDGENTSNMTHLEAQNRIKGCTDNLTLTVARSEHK

Binder | pKd
B1 | 4.18
B2 | below the threshold
B3 | 3.65
B4 | below the threshold

What follows are binders tested against PICK1, Q9NRD5 (assay: holdup assay). Conditions: plain residues with an end cap or a label only (N-terminal biotin on a linker: ado-ado).
Set-up: key: below the threshold = too weak to quantify, mostly under pKd 3.1 to 4

PICK1, Q9NRD5, sequence (Q9NRD5 17-115): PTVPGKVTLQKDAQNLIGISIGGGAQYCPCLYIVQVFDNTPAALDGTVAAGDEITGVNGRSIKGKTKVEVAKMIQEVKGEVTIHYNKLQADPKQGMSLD

Binder | pKd
B1 | below the threshold
B2 | 4.02
B3 | 4.18
B4 | below the threshold

What follows are binders tested against T10, RHPN1, Q8TCX5 (assay: holdup assay). Conditions: plain residues with an end cap or a label only (N-terminal biotin on a linker: ado-ado).
Set-up: key: below the threshold = too weak to quantify, mostly under pKd 3.1 to 4

Binder | pKd
B1 | below the threshold
B2 | below the threshold
B3 | 5.02
B4 | below the threshold

What follows are binders tested against SNX27, Q96L92 (assay: holdup assay). Conditions: plain residues with an end cap or a label only (N-terminal biotin on a linker: ado-ado).
Set-up: key: below the threshold = too weak to quantify, mostly under pKd 3.1 to 4

Binder | pKd
B1 | 3.69
B2 | 4.95
B3 | 5.55
B4 | below the threshold

These binders were tested against T11, SYNJ2BP, P57105 (assay: holdup assay). Conditions: plain residues with an end cap or a label only (N-terminal biotin on a linker: ado-ado).
Set-up: key: below the threshold = too weak to quantify, mostly under pKd 3.1 to 4

Binder | pKd
B1 | below the threshold
B2 | below the threshold
B3 | 5.1
B4 | below the threshold

These binders were tested against T12, TIAM2, Q8IVF5 (assay: holdup assay). Conditions: plain residues with an end cap or a label only (N-terminal biotin on a linker: ado-ado).
Set-up: key: below the threshold = too weak to quantify, mostly under pKd 3.1 to 4

Binder | pKd
B1 | below the threshold
B2 | 4.13
B3 | below the threshold
B4 | 4.18
